The record followed here is patent EP4692116A1 (Kexing Biopharm Co., Ltd., dated 2026).

The term EC50 denotes the concentration giving half of the maximal effect. A word on the IC50: it is the concentration needed to halve the response being measured.

Assay [1] addresses ARTN protein (Novoprotein, Cat# CR34) (human) (UniProt Q5T4W7). In words: ELISA, ARTN coated, antibody from 2,000 nM, anti-human Fc-HRP detection.
The target in assay [2] is human GDF15 protein (Novoprotein, Cat# DRA26) (human) (UniProt Q99988). As to the kind of experiment: cell-based or functional assay.
The target of assay [3] is GDF15-Biotin protein (KACTUS, Cat# GDF-HM215B) (human) (UniProt Q99988). In words: blocking ELISA: GFRAL coated, 20 ng/mL GDF15-Biotin with titrated antibody, Streptavidin-HRP. Background: ELISA stands for enzyme-linked immunosorbent assay.
Assay [4] has as its target human GDF15 protein (Novoprotein, Cat# DRA26) (human) (UniProt Q99988). In words: ELISA, human GDF15 coated, anti-human Fc-HRP detection.
Assay [5] addresses Human GDNF protein (Novoprotein, Cat# C226) (human) (UniProt P39905). In words: ELISA, GDNF coated, antibody from 2,000 nM, anti-human Fc-HRP detection.
Assay [6] deals with T1, GDF15-Biotin protein (KACTUS, Cat# GDF-HM215B) (human, UniProt Q99988 197-308, limits assumed, biotin (site not stated)).
T1 construct: Bought biotinylated protein; also called human GDF15
T1 sequence (looked up): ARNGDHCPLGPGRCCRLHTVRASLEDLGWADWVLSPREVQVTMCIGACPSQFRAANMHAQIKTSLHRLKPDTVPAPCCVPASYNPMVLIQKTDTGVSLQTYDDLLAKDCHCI
As to the kind of experiment: blocking ELISA: GFRAL coated, 20 ng/mL GDF15-Biotin with titrated antibody, Streptavidin-HRP.

In assay [7] the target is T2, human GDF15 protein (Novoprotein, Cat# DRA26) (human, UniProt Q99988 197-308).
T2 construct: Bought recombinant protein; also called growth differentiation factor 15; MIC-1
T2 sequence (looked up): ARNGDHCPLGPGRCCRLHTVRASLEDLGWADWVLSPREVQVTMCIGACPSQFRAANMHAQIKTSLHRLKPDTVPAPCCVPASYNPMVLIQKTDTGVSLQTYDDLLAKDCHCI
As to the kind of experiment: ELISA, human GDF15 coated, anti-human Fc-HRP detection.

Assay [8] concerns the target T2, human GDF15 protein (Novoprotein, Cat# …). In words: cell-based or functional assay.
The target of assay [9] is T3, Human GDNF protein (Novoprotein, Cat# C226) (human, UniProt P39905 78-211).
T3 construct: Bought protein
T3 sequence (looked up): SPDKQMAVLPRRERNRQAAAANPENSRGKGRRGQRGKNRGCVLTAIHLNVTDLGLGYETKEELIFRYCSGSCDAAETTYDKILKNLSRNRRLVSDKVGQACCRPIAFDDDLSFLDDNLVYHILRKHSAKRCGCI
As to the kind of experiment: ELISA, GDNF coated, antibody from 2,000 nM.

ARTN protein (Novoprotein, Cat# CR34) (human), sequence (Q5T4W7 108-220 limits assumed): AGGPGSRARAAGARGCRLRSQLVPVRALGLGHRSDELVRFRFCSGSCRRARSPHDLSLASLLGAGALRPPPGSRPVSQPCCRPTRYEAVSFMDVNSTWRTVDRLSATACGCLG

For the molecule “PF-06946860 (Pfizer GDF15 monoclonal antibody, positive control)”, the values for the half-maximal effective concentration (EC50) in [1], in assay [4] and in assay [5] were 97.1 nM, 0.0974 nM and 278 nM, respectively. In assay [2], the IC50 of GDF15 reporter gene activity was 0.0475 nM. The molecule also had an IC50 in assay [3] of 0.11 nM.

In assay [2], “CTL002 (CatalYm humanized GDF15 monoclonal antibody, positive control)” returned an IC50 of GDF15 reporter gene activity of 1.99 nM. Further, the IC50 in [3] was 1.5 nM. Further, the EC50 in assay [4] turned out to be 0.0933 nM.

B1: LN05 GDF15 heavy chain single-domain antibody (full-length, VHH joined to human IgG1 Fc) (antibody, V domains shown)
VH: QVQLVESGGGLVQPGGSLRLSCAASGFTLDYYAIGWFRQAPGKGREGVSCISSNDGSTYYSDSVKGRFTTSRDNAKNTVYLQMNSLKPEDTAVYYCAADLTPCPVNPSVDHYWGQGTQVTVSS
notes: expressed in CHO cells, Protein A purified; No light chain; also called LN05 full-length
B1 returned an IC50 in assay [6] of 0.221 nM. In assay [7], this molecule gave an EC50 of 0.0912 nM. Further, the “IC50 of GDF15 reporter gene activity” value in assay [8] was found to be 0.0778 nM. In [9], the binding result is “binds”.

B2: LN14 GDF15 heavy chain single-domain antibody (full-length, VHH joined to human IgG1 Fc) (antibody, V domains shown)
VH: QVQLVESGGGLVQPGGSLRLACAASGFTLDAYAVGWFRQAPGKNPEGVSCISSSDGSAYYADSVKGRFTISRDNAKNTVYLQMNSLKPGDTAVYYCAADLSCPVQIATFHSRGQGTQVTVSS
notes: expressed in CHO cells; No light chain; also called LN14 full-length
B2: in [6], half-maximal inhibition (IC50) required 0.16 nM. In addition, the midpoint of the response in assay [7], the EC50, lay at 0.0988 nM. The “IC50 of GDF15 reporter gene activity” value in [8] came to 0.0701 nM.

B3: LN13 GDF15 heavy chain single-domain antibody (full-length, VHH joined to human IgG1 Fc) (antibody, V domains shown)
VH: QLQLVESGGGLVQPGGSLRLSCAASGFTLDYYAIGWFRQAPGKGPEAVSCISSSDGSTYYSDSVKGRFTISRDNAKNTVYLQMNSLKPEDTAVYYCAAGEYGSDCPVQVGSWGQGTQVTVSS
notes: expressed in CHO cells; No light chain; also called LN13 full-length
B3 registered a half-maximal inhibitory concentration (IC50) in assay [6] of 0.147 nM. Further, the 50% effective concentration (EC50) in [7] is 0.0858 nM. For the same molecule, the “IC50 of GDF15 reporter gene activity” value in assay [8] stood at 0.0719 nM. Also, in assay [9], the binding result is listed as “binds”.

B4: LN06 GDF15 heavy chain single-domain antibody (full-length, VHH joined to human IgG1 Fc) (antibody, V domains shown)
VH: QLQLVESGGGLVQPGGSLRLSCVASGFTLDDYAIGWFRQAPGKGLEGVSCISSSDESTYYADSVKGRFTISRDNAKNTAYLQMNSLKPEDTAIYYCAADTECPVQVTSMAWGQGTQVTVSS
notes: expressed in CHO cells; No light chain; also called LN06 full-length
B4 yielded an IC50 in assay [6] of 0.175 nM. For the same molecule, in assay [7], the EC50 is 0.0832 nM. In [8], the “IC50 of GDF15 reporter gene activity” value worked out at 0.0705 nM. For the same molecule, in [9], the binding result is “binds”.

B5: LN25 GDF15 heavy chain single-domain antibody (full-length, VHH joined to human IgG1 Fc) (antibody, V domains shown)
VH: QLQLVESGGGEVQPGGSLRLSCAASGATLDDLSIGWFRQAPGKGLEGVSCISSSDGSTYYADSVKGRFTISRDNAKNTAYLQMNSLRPEDTAVYYCAADREDCPVQPWGIVAGTSRGQGTQVTVSS
notes: expressed in CHO cells; No light chain; also called LN25 full-length
Regarding B5, the 50% inhibitory concentration (IC50) in [6] came to 0.171 nM. A half-maximal effect in [7] (EC50) was put at 0.0892 nM. Moreover, the “IC50 of GDF15 reporter gene activity” value in assay [8] was determined as 0.0735 nM. Further, the binding result in assay [9] was “binds”.

B6: LN11 GDF15 heavy chain single-domain antibody (VHH joined to human IgG1 Fc) (antibody, V domains shown)
VH: QVQLVESGGGLVQPGGSLRLSCAASGFTIRTYTMSWYRQAPGKERALVAYITPGGPTYHIDSVKGRFTISRNNAENTVYLQMNSLKPEDTAVYYCGNGFGSWGQGTQVTVSS
B6 came in with an EC50 in assay [7] of 0.382 nM.
